Measurements taken from patent US20180305414A1.

Experiments:
[1] = molecular target: human IgG (available from the Chemo-Sero-Therapeutic Research Institute) (human); experiment: binding capacity; Capto L resin, human IgG, acid elution, A280
[2] = molecular target: Fab prepared by papain treatment of human IgG (human); experiment: binding capacity; Capto L resin, 20 mg/mL human Fab, acid elution, A280
[3] = molecular target: Fab prepared by papain treatment of human IgG (human); experiment: binding capacity against Capto L
[4] = molecular target: human IgG (available from the Chemo-Sero-Therapeutic Research Institute) (human); experiment: binding capacity against Capto L
[5] = molecular target: human IgG (available from the Chemo-Sero-Therapeutic Research Institute) (human); experiment: binding capacity; binder immobilised on agarose gel, human IgG
[6] = molecular target: human IgG (available from the Chemo-Sero-Therapeutic Research Institute) (human); experiment: binding capacity; binder immobilised on agarose gel, human IgG, acid elution, A280
[7] = molecular target: Fab prepared by papain treatment of human IgG (human); experiment: binding capacity; binder immobilised on agarose gel, 20 mg/mL human Fab, acid elution, A280

Molecule | IgG Binding Capacity [1] [mg/mL gel] | Fab Binding Capacity [2] [mg/mL gel] | amount of bound Fab fragment relative to Capto L [3] [times] | amount of bound IgG relative to Capto L [4] [times] | human IgG binding capacity relative to PL-024 [5] [%] | IgG Binding Capacity [6] [mg/mL gel] | Fab Binding Capacity [7] [mg/mL gel]
Capto L (GE Healthcare KK) having a tetramer (Protein L) with the native sequence immobilized thereon | 43.6 | 30.9 |  |  |  |  | 
hexameric multidomain polypeptide PL-624 (six linked modified domains of PL-024) (designed binder) AQHDEAGLALETPEEPREEVTIRVNLIFADGRTQTAEFRGTFEEATAEAYRYADLLARVNGEYTADLEDGGYTINIRFAGALETPEEPREEVTIRVNLIFADGRTQTAEFRGTFEEATAEAYRYADLLARVNGEYTADLEDGGYTINIRFAGALETPEEPREEVTIRVNLIFADGRTQTAEFRGTFEEATAEAYRYADLLARVNGEYTADLEDGGYTINIRFAGALETPEEPREEVTIRVNLIFADGRTQTAEFRGTFEEATAEAYRYADLLARVNGEYTADLEDGGYTINIRFAGALETPEEPREEVTIRVNLIFADGRTQTAEFRGTFEEATAEAYRYADLLARVNGEYTADLEDGGYTINIRFAGALETPEEPREEVTIRVNLIFADGRTQTAEFRGTFEEATAEAYRYADLLARVNGEYTADLEDGGYTINIRFAGALPSKSKKILKEAKKLNKAQAPKKKK |  |  | 2.4 | 2.2 | 151 | 95.8 | 75.9
